Results published in patent publication US20200199244A1 (published 2020).
Where “and” joins values, the source holds several entries; their conditions need not be identical. Equal entries are not always repeated.

Biological target: T1, human CD40 (BMS, CY24FEB06-01) (human, UniProt P25942 21-193)
T1 construct: Soluble human CD40 reagent of the ELISA RBA
Assay: ELISA RBA, competition with IZ-CD40L for soluble human CD40;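 note: Neutravidin-coated 384-well plates, dAb–human CD40 complex incubated 2 h at room temperature, read-out as absorbance at 450 nm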
T1 sequence (P25942 21-193 limits assumed): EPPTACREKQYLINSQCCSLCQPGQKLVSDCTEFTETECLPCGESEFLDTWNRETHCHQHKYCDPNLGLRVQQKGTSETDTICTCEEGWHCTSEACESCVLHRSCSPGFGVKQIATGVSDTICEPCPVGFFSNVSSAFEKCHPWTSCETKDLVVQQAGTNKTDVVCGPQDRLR
Description: (§1) Clear walled High Bind, 384-well plates (Corning, UK) were coated with 25 μl of 1 μg/ml Neutravidin in 0.2 M carbonate-bicarbonate buffer, pH 9.4 overnight at 4° C. The following day, assay plates were washed with 0.1% (v/v) Tween PBS buffer, blocked with 1% (w/v) BSA in PBS for 1 hour at room temperature and washed again. […] Following washing of the assay plate, the dAb:human CD40 complex was incubated in the assay plate at room temperature for 2 hours with gentle agitation. […] Absorbance signal was measured using a SpectraMax® M5e plate reader (Molecular Devices) at 450 nm following neutralization with 1M HCl solution.

EC50 [µM] | Binder
0.1 | BMS3h-193-2516 (other, domain antibody (dAb): single human V kappa domain) VL: DIQMTQSPSSLSASVGDRVTITCRASQTIERRLNWYQQKPGKAPRLLIYLSSKLQSGVPSRFSGSGSGTDFTLTISSLQPEDFATYYCHQYESPPLTFGQGTKVEIKR

Biological target: T2, human CD40 (BMS, CY24FEB06-01) (human, UniProt P25942 21-193)
T2 construct: Soluble reagent of the bead and ELISA RBA; It is detected with an anti-human IgG (Fc) mAb, so it may be a CD40-Ig fusion
Assay: ELISA RBA, competition with IZ-CD40L;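 note: Neutravidin-coated 384-well plate, dAb–human CD40 complex bound for 2 h at room temperature, absorbance read at 450 nm after HCl stop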
T2 sequence (P25942 21-193 limits assumed): as the sequence (P25942 21-193 limits assumed) above
Description: as §1

Binder | EC50
BMS3h-217-16 (other, dAb, single VK) VL: DIQMTQSPSSLSASVGDRVTITCRASHFIGTLLSWYQQKPRKAPKLLITYGSLLQSGVPSRFSGSGSGTDFTLTISSLQPEDFATYYCGQGVLWPPTFGQGTKVEIKR | 0.009 µM
BMS3h-217-8 (other, dAb, single VK) VL: DIQMTQSPSSLSASVGDRVTITCRASHFIGTLLSWYQHKPGKAPKLLITYGSLLQSGVPSRFSGSGSGTDFTLTISSLQPEDFATYYCGQGVLWPATFGQGTKVEIKR | 0.006 µM
BMS3h-217-17 (other, dAb, single VK) VL: DIQIIQSPSSLSASVGDRVTITCRASHFIGTLLSWYQQKPGKAPKLLITYGSLLQSGVPSRFSGSGSGTDFTLTISSLQPEDFATYYCGQGVLWPPTFGQGTKVEIKR | 0.06 µM
BMS3h-217-15 (other, dAb, single VK) VL: DIQMTQSPSSLYASVGDRVTITCRVSHFIGTLLSWYQQKPGKAPKLLITYGSLLQSGVPSRFSGSGSGTDFTLSISSLQPEDFATYYCGQGVLWPPTFGQGTKVEIKQ | 0.021 µM
BMS3h-217-23 (other, dAb, single VK) VL: DIQMTQSPSSLSASVGDRVTITCRASHFIGSLLSWYQVKPGKAPKLLITYGSLLQSGVPSRFSGSGSGTDFTLTISSLQPEDFATYYCGQGVLWPATFGQGTTVEIKR | 0.016 µM
BMS3h-217-7 (other, dAb, single VK) VL: DIQMTQSPSSLSASVGDRVTITCRASHFIGSLLSWYQHKPGKAPKLLITYGSLLQSGVPSRFSGSGSGTDFTLTISSLQPEDFATYYCGQGVLWPATFGQGTKVEIKR | 0.039 µM
BMS3h-56-7 (other, dAb, single VH) VH: EVQLLESGGGLVQPGGSLRLSCAASGFTFRDYEMWWVRQAPGKGLERVSAINPQGTRTYYADSVKGRFTISRDNSKNTLYLQMNSLRAEDTSVYHCAKPPFIFGDWGPGTLVTVSS | 0.0055 µM
BMS3h-56-26 (other, dAb, single VH) VH: EVQLLESGGGLVQPGGSLRLSCAASGFTFRDYEMWWVRRAPGKGLERVSAINPQGTRTYYADSVMGRFTISRDNSKNTLYLQMNSLRAEDTAVYYCAKLPFMFDDRGQGTLVTVSS | 0.005 µM
BMS3h-56-28 (other, dAb, single VH) VH: EVQLLESGGGLVQPGGSLRLSCAASGFTFAGYELWWVRQAPGKGLERVSAINPQGTRTYYADSVMGRFTISRDNSKNTLYLQMNSLRAEDTAVYYCAKLPFTFDDWGQGTLVTVSS | 0.0089 µM
BMS3h-198-34 (other, dAb, single VH) VH: EVQLLESGGGLVQPGGSLRLSCAASGFTFAGYEMWWVRQAPGKGLERVSAISGSGGSTYYADSVKGRFTISRDDSKNTLYLQMNSLRAEDTAVYYCAKDPYSFDNWGQGTLVTVSS | 0.0326 µM
BMS3h-198-9 (other, dAb, single VH) VH: EVQLLESGGGLVQPGGSLRLSCAASGFTFAGYEMWWVRQAPGKGLERVSAISGSGGSTYYADSVKGRFTISRDDSKNTLYLQMNSLRAEDTAVYYCAKEPYSFDYWGQGTLVTVSS | 0.02 µM
BMS3h-56-29 (other, dAb, single VH) VH: EVQLLESGGGLVQPGGSLRLSCAASGFTFAGYELWWVRQAPGKGLERVSAINPQGTRTYYADSVMGRFTISRDNSKNTLYLQMNSLRAEDTAVYYCAKLPFMFDDRGQGTLVTVSS | 0.0097 µM
BMS3h-198-17 (other, dAb, single VH) VH: EVQLLESGGGLVQPGGSLRLSCAASGFTFAGYEMWWVRQAPGKGLERVSAISGSGGSTYYADSVKGRFTISRDDSKNTLYLQMNSLRAEDTAVYYCARDPYSFDYWGQGTLVTVSS | 0.02 µM
BMS3h-56-20 (other, dAb, single VH) VH: EVQLLESGGGLVQPGGSLRLSCAASGFTFRDYEMWWVRQAPGKGLERVSAINPQGTRTYYADSVKGRFTISRDNSKNTLYLQMNSLRAEDTAVYYCTKLPFTFEDWGQGTLVTVSS | 0.0068 µM
BMS3h-56-21 (other, dAb, single VH) VH: EVQLLESGGGLVQPGGSLRLSCAASGFTFRDYEMWWVRQAPGKGLERVSAINPQGTRTYYADSVKGRFTISRDNSKNTLYLQMNSLRAEDTAVYYCLKLPFTFEDWGQGTLVTVSS | 0.0065 µM and 0.0062 µM
BMS3h-56-18 (other, dAb, single VH) VH: EVQLLESGGGLVQPGGSLRLSCAASGFTFRDYEMWWVRQAPGKVLERVSAINPQGTRTYYADSVKGRFTISRDNSKNMLYLQMNSLRAEDTAVYYCAKLPFTFEDWGQGTLVTVSS | 0.0065 µM
BMS3h-56-17 (other, dAb, single VH) VH: EVQLLESGGGLVQPGGSLRLSCAASGFSFRDYEMWWYRQAPGKGLERVSAINPQGTRTYYADSVKGRFTISRDNSKNTLYLQMNSLRAEDTAVYYCAKLPFTFEDWGQGTLVTVSS | 0.066 µM
BMS3h-56-16 (other, dAb, single VH) VH: EVQLLESGGGLVQPGGSLRLSCAASGFTFRDYEMWWVRQAPGKGLERVSAINPQGTRTYYADSVMGRFTISRDNSKNTLYLQMNSLRAEDTAVYYCAKLPFTFEDWGQGTLVTVSS | 0.007 µM
BMS3h-56-24 (other, dAb, single VH) VH: EVQLLESGGGLVQPGGSLRLSCAASGFTFRDYEMWWVRQAPGKGLERVSAINPQGTRTYYADSVMGRFTISRDNSKNTLYLQMNSLRAEDTAVYHCAKEPYSYDYWGQGTLVTVSS | 0.0117 µM
BMS3h-198-32 (other, dAb, single VH) VH: EVQLLESGGGLVQPGGSLRLSCAASGFTFAGYEMWWFRQAPGKGLERVSAISGSGGSTYYADSVKGRFTISRDNSKNTLYLQMNSLRAEDTAVYYCAKDPYSFDNWGQGTLVTVSS | 0.0247 µM
BMS3h-198-33 (other, dAb, single VH) VH: EVQLLESGGGLVQPGGSLRLSCAASGFTFAGYEMWWVRQAPGKGLERVSAISGSGGSTYYADSVKGRFTISRDDSKNTLYLQMNSLRAEDTAVYYCAKEPYSYDYWGQGTLVTVSS | 0.0087 µM

The remaining lines, values ahead:

EC50 | Binder
0.023 µM | BMS3h-217-1 (other, dAb, single VK) VL: NIQMTQSPSSLSASVGDRVTITCRASHFIGTLLTWYQHKPGKAPKLLITYGSLLQSGVPSRFSGSGSGTDFTLTISSLQPEDFATYYCGQGVLWPATFGQGTKVEIKR
0.053 µM | BMS3h-217-9 (other, dAb, single VK) VL: DIQMTQSPSSLSASVGDRVTITCRASHFIGTLLSWYQHKPGKAPKLLITYGSMLQSGVPSRFSGSGSGTDFTLTISSLQPEDFATYYCGQGVLWPATFGQGTKVEIKR
0.032 µM | BMS3h-217-3 (other, dAb, single VK) VL: DIQMTQSPSSLTASVGDRVTITCRASHFIGTLLSWYQQKPGKAPKLLVTYGSLLQSGVPSRFSGSGSGTDFTLTISNLQPEDFATYYCGQGVLWPPTFGQGTKVENIR
0.078 µM | BMS3h-217-2 (other, dAb, single VK) VL: DIQMTQSPSSLSASVGDRVTITCRASHFIGTLLSWYQQKPRKAPKLLITYGSLLQSGVPSRFSGSGSGTDFTLTISSLHPEDFATYYCGQGVLWPPTFGQGTKVEIKR
0.061 µM | BMS3h-56-31 (other, dAb, single VH) VH: EVQLLESGGGLVQPGGSLRLSCAASGFTFAGYEMWWFRQAPGKGLERVSAINPQGTRTYYADSVMGRFTISRDNSKNTLYLQMNSLRAEDTAVYYCAKLPFMFDDRGQGTLVTVSS
0.0245 µM | BMS3h-56-23 (other, dAb, single VH) VH: EVQLLESGGGLVQPGGSLRLSCAASGFTFRDYEMWWVRQAPGKGLERVSAINPQGTRTYYADSVMGRFTISRDNSKNTLYLQMNSLRAEDTAVYYCAKEPYSFDSWGQGTLVTVSS
0.0055 µM | BMS3h-56-25 (other, dAb, single VH) VH: EVQLLESGGGLVQPGGSLRLSCAASGFTFRDYEMWWVRRAPGKGLERVSAINPQGTRTYYADSVMGRFTISRDNSKNTLYLQMNSLRAEDTAVYYCAKLPFTFDDWGQGTLVTVSS
0.0062 µM | BMS3h-56-8 (other, dAb, single VH) VH: EVQLLESGGGLVQPGGSRRLSCAASGFTFRDYEMWWVRQAPGKGLERVSAINPQGTRTYYADSVKGRFTISRDNSKNTLYLQMNSLRAEDTAVYYCAKLPFTFEDWGQGTLVTVSS
0.0061 µM | BMS3h-198-31 (other, dAb, single VH) VH: EVQLLESGGGLVQPGGSLRLSCAASGFTFAGYEMWWVRQAPGKGLERVSAISGSGGSTYYADSVKGRFTISRDNSKNTLYLQMNSLRAEDTAVYHCAKEPYSYDYWGQGTLVTVSS
0.0065 µM | BMS3h-56-22 (other, dAb, single VH) VH: EVQLLESGGGLVQPGGSLRLSCAASGFTFRDYEMWWVRQAPGKGLERVSAINPQGTRTYYADSVKGRFTISRDNSKNTLYLQMNSLRADDTAVYHCTKLPFIFEYWGQGTLVTVSS
0.0242 µM | BMS3h-56-30 (other, dAb, single VH) VH: EVQLLESGGGLVQPGGSLRLSCAASGFTFAGYEMWWFRQAPGKGLERVSAINPQGTRTYYADSVMGRFTISRDNSKNTLYLQMNSLRAEDTAVYYCAKLPFTFDDWGQGTLVTVSS
0.0055 µM and 0.0051 µM | BMS3h-56-19 (other, dAb, single VH) VH: EVQLLESGGGLVQPGGSLRLSCAASGFTFRDYEMWWVRQAPGKGLERVSAINPQGTRTYYADSVKGRFTISRDNSKNTLYLQMNSLRAEDTAVYHCAKLPFTFEDWGQGTLVTVSS
